Target: T1, Siglec-7-ECD (human, UniProt Q9Y286 19-353)
T1 construct: also called p75; AIRM
Assay: monovalent Fab; bio-layer interferometry (ForteBio) per Methods

T1 sequence (Q9Y286 19-353 limits assumed): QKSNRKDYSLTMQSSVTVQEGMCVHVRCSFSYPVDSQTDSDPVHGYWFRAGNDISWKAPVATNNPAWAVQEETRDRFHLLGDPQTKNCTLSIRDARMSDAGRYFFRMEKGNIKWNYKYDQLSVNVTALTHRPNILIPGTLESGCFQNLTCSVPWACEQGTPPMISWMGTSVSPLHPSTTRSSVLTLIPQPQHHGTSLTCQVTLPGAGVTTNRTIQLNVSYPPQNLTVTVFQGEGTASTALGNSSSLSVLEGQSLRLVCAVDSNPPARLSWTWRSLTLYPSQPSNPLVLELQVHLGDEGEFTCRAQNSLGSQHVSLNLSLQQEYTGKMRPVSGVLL

Binder	Kd [nM]
humanized 16H11-derived Fab, VH AK446-7 / VL AK418-2 (Fab, V domains shown, Measured as monovalent Fab; also called No. 33; AK446-7/AK418-2) VH: QVQLVQSGAEVKKPGSSVKVSCKASGYDFSNFWMNWVRQAPGQGLEWMGQIYPGDGEIKYNQKFQGRVTITADESTSTAYMELSSLRSEDTAVYYCARDDYLRAMDIWGQGTMVTVSS VL: DIQMTQSPSSLSASVGDRVTITCRASGNIHNYLAWYQQKPGKAPKFLLYSAKRLESGVPSRFSGSGSGTDYTLTISSLQPEDFATYYCQHFWSSPYTFGGGTKVEIK	< 0.075
humanized 16H11-derived Fab, VH AK417-17 / VL AK425-3 (Fab, V domains shown, Measured as monovalent Fab; also called No. 8) VH: QVQLVQSGAEVKKPGSSVKVSCKASGYDFSNFWMNWVRQAPGQGLEWMGGIYPGDGEINYAQKFQGRVTITADESTSTAYMELSSLRSEDTAVYYCARDDYLRAMDIWGQGTMVTVSS VL: DIQMTQSPSSLSASVGDRVTITCRASGNIHNYLAWYQQKPGKAPKLLLYSAKRLEDGVPSRFSGSGSGTDYTLTISSLQPEDFATYYCQHFWSSPYTFGGGTKVEIK	> 0.5
humanized 16H11-derived Fab, VH AK447-2 / VL AK448-3 (Fab, V domains shown, Measured as monovalent Fab; also called No. 27) VH: QVQLVQSGAEVKKPGSSVKVSCKASGYDFSNFWMNWVRQAPGQGLEWMGQIYPGDGEINYNQKFQGRVTITADESTSTAYMELSSLRSEDTAVYYCARDDYLRAMDIWGQGTMVTVSS VL: DIQMTQSPSSLSASVGDRVTITCRASQNIHNYLAWYQQKPGKAPKFLLYSAKRLESGVPSRFSGSGSGTDYTLTISSLQPEDFATYYCQHFWSSPYTFGQGTKLEIK	0.075 to 0.15
humanized 16H11-derived Fab, VH AK441-2 / VL AK418-2 (Fab, V domains shown, Measured as monovalent Fab; also called No. 19; VH441-2 and VL418-2) VH: QVQLVQSGAEVKKPGSSVKVSCKGSGYDFSNFWMNWVRQAPGQGLEWMGQIYPGDGEIKYNQKFQGRVTLTADESTSTAYMELSSLRSEDTAVYYCARDDYLRAMDIWGQGTMVTVSS VL: DIQMTQSPSSLSASVGDRVTITCRASGNIHNYLAWYQQKPGKAPKFLLYSAKRLESGVPSRFSGSGSGTDYTLTISSLQPEDFATYYCQHFWSSPYTFGGGTKVEIK	< 0.075
humanized 16H11-derived Fab, VH AK444-2 / VL AK418-2 (Fab, V domains shown, Measured as monovalent Fab; also called No. 24; VH444-2 and VL418-2) VH: QVQLVQSGAEVKKPGSSVKVSCKASGYDFSNFWMNWVRQAPGQGLEWMGQIYPGDGEIKYNQKFQGRVTITADESTSTAYMELSSLRSEDTAVYFCARDDYLRAMDYWGQGTLVTVSS VL: DIQMTQSPSSLSASVGDRVTITCRASGNIHNYLAWYQQKPGKAPKFLLYSAKRLESGVPSRFSGSGSGTDYTLTISSLQPEDFATYYCQHFWSSPYTFGGGTKVEIK	< 0.075
humanized 16H11-derived Fab, VH AK445-3 / VL AK418-2 (Fab, V domains shown, Measured as monovalent Fab; also called No. 25; VH445-3 and VL418-2) VH: QVQLVQSGAEVKKPGSSVKVSCKASGYDFSNFWMNWVRQAPGQGLEWMGQIYPGDGEIKYNQKFQGRVTLTADESTSTAYMELSSLRSEDTAVYYCARDDYLRAMDIWGQGTMVTVSS VL: DIQMTQSPSSLSASVGDRVTITCRASGNIHNYLAWYQQKPGKAPKFLLYSAKRLESGVPSRFSGSGSGTDYTLTISSLQPEDFATYYCQHFWSSPYTFGGGTKVEIK	< 0.075
humanized 16H11-derived Fab, VH AK417-8 / VL AK439-5 (Fab, V domains shown, Measured as monovalent Fab; also called No. 22) VH: QVQLVQSGAEVKKPGSSVKVSCKASGYDFSNFWMNWVRQAPGQGLEWMGGIYPGDGEINYAQKFQGRVTITADESTSTAYMELSSLRSEDTAVYYCARDDYLRAMDVWGQGTMVTVSS VL: DIQMTQSPSSLSASVGDRVTITCRASQNIHNYLAWYQQKPGKAPKFLLYSAKRLEDGVPSRFSGSGSGTDYTLTISSLQPEDFATYYCQHFWSSPYTFGQGTKLEIK	0.25
humanized 16H11-derived Fab, VH AK440-2 / VL AK418-2 (Fab, V domains shown, Measured as monovalent Fab; also called No. 18; VH440-2 and VL418-2) VH: QVQLVQSGAEVKKPGSSVKVSCKGSGYDFSNFWMNWVRQAPGQGLEWMGQIYPGDGEIKYNQKFQGRVTITADESTSTAYMELSSLRSEDTAVYFCARDDYLRAMDYWGQGTLVTVSS VL: DIQMTQSPSSLSASVGDRVTITCRASGNIHNYLAWYQQKPGKAPKFLLYSAKRLESGVPSRFSGSGSGTDYTLTISSLQPEDFATYYCQHFWSSPYTFGGGTKVEIK	< 0.1
humanized 16H11-derived Fab, VH AK417-17 / VL AK421-3 (Fab, V domains shown, Measured as monovalent Fab; also called No. 5) VH: QVQLVQSGAEVKKPGSSVKVSCKASGYDFSNFWMNWVRQAPGQGLEWMGGIYPGDGEINYAQKFQGRVTITADESTSTAYMELSSLRSEDTAVYYCARDDYLRAMDIWGQGTMVTVSS VL: DIQMTQSPSSLSASVGDRVTITCRASGNIHNYLAWYQQKPGKAPKFLLYSAKRLESGVPSRFSGSGSGTDYTLTISSLQPEDFATYYCQHFWSSPYTFGQGTKLEIK	0.25 to 0.5
humanized 16H11-derived Fab, VH AK417-17 / VL AK426-2 (Fab, V domains shown, Measured as monovalent Fab; also called No. 9) VH: QVQLVQSGAEVKKPGSSVKVSCKASGYDFSNFWMNWVRQAPGQGLEWMGGIYPGDGEINYAQKFQGRVTITADESTSTAYMELSSLRSEDTAVYYCARDDYLRAMDIWGQGTMVTVSS VL: DIQMTQSPSSLSASVGDRVTITCRASQNIHNYLAWYQQKPGKAPKLLLYSAKRLASGVPSRFSGSGSGTDYTLTISSLQPEDFATYYCQHFWSSPYTFGGGTKVEIK	> 0.5
humanized 16H11-derived Fab, VH AK438-4 / VL AK418-2 (Fab, V domains shown, Measured as monovalent Fab; also called No. 17; VH438-4 and VL418-2) VH: QVQLVQSGAEVKKPGSSVKVSCKASGYDFSNFWMNWVRQAPGQGLEWMGQIYPGDGEIKYNQKFQGRVTLTADESTSTAYMELSSLRSEDTAVYFCARDDYLRAMDYWGQGTLVTVSS VL: DIQMTQSPSSLSASVGDRVTITCRASGNIHNYLAWYQQKPGKAPKFLLYSAKRLESGVPSRFSGSGSGTDYTLTISSLQPEDFATYYCQHFWSSPYTFGGGTKVEIK	< 0.075
humanized 16H11-derived Fab, VH AK446-7 / VL AK419-2 (Fab, V domains shown, Measured as monovalent Fab; also called No. 37) VH: QVQLVQSGAEVKKPGSSVKVSCKASGYDFSNFWMNWVRQAPGQGLEWMGQIYPGDGEIKYNQKFQGRVTITADESTSTAYMELSSLRSEDTAVYYCARDDYLRAMDIWGQGTMVTVSS VL: DIQMTQSPSSLSASVGDRVTITCRASQNIHNYLAWYQQKPGKAPKFLLYSAKRLESGVPSRFSGSGSGTDYTLTISSLQPEDFATYYCQHFWSSPYTFGGGTKVEIK	> 0.5
humanized 16H11-derived Fab, VH AK449-4 / VL AK448-3 (Fab, V domains shown, Measured as monovalent Fab; also called No. 29; VH449-4 and VL448-3) VH: QVQLVQSGAEVKKPGSSVKVSCKASGYDFSNFWMNWVRQAPGQGLEWMGGIYPGDGEIKYNQKFQGRVTITADESTSTAYMELSSLRSEDTAVYYCARDDYLRAMDIWGQGTMVTVSS VL: DIQMTQSPSSLSASVGDRVTITCRASQNIHNYLAWYQQKPGKAPKFLLYSAKRLESGVPSRFSGSGSGTDYTLTISSLQPEDFATYYCQHFWSSPYTFGQGTKLEIK	< 0.1
humanized 16H11-derived Fab, VH AK410-1 / VL AK418-2 (Fab, V domains shown, Measured as monovalent Fab; also called No. 1; AK410-1/AK418-2) VH: QVQLVQSGAEVKKPGSSVKVSCKASGYDFSNFWMNWVRQAPGQGLEWMGGIYPGDGEINYAQKFQGRVTITADESTSTAYMELSSLRSEDTAVYYCARDDYLRAMDYWGQGTLVTVSS VL: DIQMTQSPSSLSASVGDRVTITCRASGNIHNYLAWYQQKPGKAPKFLLYSAKRLESGVPSRFSGSGSGTDYTLTISSLQPEDFATYYCQHFWSSPYTFGGGTKVEIK	0.25 to 0.5
humanized 16H11-derived Fab, VH AK387-11 / VL AK418-2 (Fab, V domains shown, Measured as monovalent Fab; also called No. 32; VH387-11 and VL418-2) VH: QVQLVQSGAEVKKPGSSVKVSCKGSGYDFSNFWMNWVRQAPGQGLEWMGQIYPGDGEIKYNQKFQGRVTLTADESTSTAYMELSSLRSEDTAVYFCARDDYLRAMDYWGQGTLVTVSS VL: DIQMTQSPSSLSASVGDRVTITCRASGNIHNYLAWYQQKPGKAPKFLLYSAKRLESGVPSRFSGSGSGTDYTLTISSLQPEDFATYYCQHFWSSPYTFGGGTKVEIK	< 0.075

Further lines, results first:

Kd [nM]	Binder
0.075 to 0.15	humanized 16H11-derived Fab, VH AK449-4 / VL AK418-2 (Fab, V domains shown, Measured as monovalent Fab; also called No. 28) VH: QVQLVQSGAEVKKPGSSVKVSCKASGYDFSNFWMNWVRQAPGQGLEWMGGIYPGDGEIKYNQKFQGRVTITADESTSTAYMELSSLRSEDTAVYYCARDDYLRAMDIWGQGTMVTVSS VL: DIQMTQSPSSLSASVGDRVTITCRASGNIHNYLAWYQQKPGKAPKFLLYSAKRLESGVPSRFSGSGSGTDYTLTISSLQPEDFATYYCQHFWSSPYTFGGGTKVEIK
> 0.5	humanized 16H11-derived Fab, VH AK417-17 / VL AK427-1 (Fab, V domains shown, Measured as monovalent Fab; also called No. 10) VH: QVQLVQSGAEVKKPGSSVKVSCKASGYDFSNFWMNWVRQAPGQGLEWMGGIYPGDGEINYAQKFQGRVTITADESTSTAYMELSSLRSEDTAVYYCARDDYLRAMDIWGQGTMVTVSS VL: DIQMTQSPSSLSASVGDRVTITCRASQNIHNYLAWYQQKPGKAPKLLLYSAKRLEDGVPSRFSGSGSGTDYTLTISSLQPEDFATYYCQHFWSSPYTFGGGTKVEIK
0.075 to 0.15	humanized 16H11-derived Fab, VH AK447-2 / VL AK418-2 (Fab, V domains shown, Measured as monovalent Fab; also called No. 26) VH: QVQLVQSGAEVKKPGSSVKVSCKASGYDFSNFWMNWVRQAPGQGLEWMGQIYPGDGEINYNQKFQGRVTITADESTSTAYMELSSLRSEDTAVYYCARDDYLRAMDIWGQGTMVTVSS VL: DIQMTQSPSSLSASVGDRVTITCRASGNIHNYLAWYQQKPGKAPKFLLYSAKRLESGVPSRFSGSGSGTDYTLTISSLQPEDFATYYCQHFWSSPYTFGGGTKVEIK
> 0.5	humanized 16H11-derived Fab, VH AK417-17 / VL AK424-1 (Fab, V domains shown, Measured as monovalent Fab; also called No. 7) VH: QVQLVQSGAEVKKPGSSVKVSCKASGYDFSNFWMNWVRQAPGQGLEWMGGIYPGDGEINYAQKFQGRVTITADESTSTAYMELSSLRSEDTAVYYCARDDYLRAMDIWGQGTMVTVSS VL: DIQMTQSPSSLSASVGDRVTITCRASGNIHNYLAWYQQKPGKAPKLLLYSAKRLASGVPSRFSGSGSGTDYTLTISSLQPEDFATYYCQHFWSSPYTFGGGTKVEIK
< 0.075	humanized 16H11-derived Fab, VH AK443-1 / VL AK418-2 (Fab, V domains shown, Measured as monovalent Fab; also called No. 23; VH443-1 and VL418-2) VH: QVQLVQSGAEVKKPGSSVKVSCKGSGYDFSNFWMNWVRQAPGQGLEWMGQIYPGDGEIKYNQKFQGRVTITADESTSTAYMELSSLRSEDTAVYYCARDDYLRAMDIWGQGTMVTVSS VL: DIQMTQSPSSLSASVGDRVTITCRASGNIHNYLAWYQQKPGKAPKFLLYSAKRLESGVPSRFSGSGSGTDYTLTISSLQPEDFATYYCQHFWSSPYTFGGGTKVEIK
0.25 to 0.5	humanized 16H11-derived Fab, VH AK417-17 / VL AK439-5 (Fab, V domains shown, Measured as monovalent Fab; also called No. 21) VH: QVQLVQSGAEVKKPGSSVKVSCKASGYDFSNFWMNWVRQAPGQGLEWMGGIYPGDGEINYAQKFQGRVTITADESTSTAYMELSSLRSEDTAVYYCARDDYLRAMDIWGQGTMVTVSS VL: DIQMTQSPSSLSASVGDRVTITCRASQNIHNYLAWYQQKPGKAPKFLLYSAKRLEDGVPSRFSGSGSGTDYTLTISSLQPEDFATYYCQHFWSSPYTFGQGTKLEIK
< 0.075	humanized 16H11-derived Fab, VH AK446-7 / VL AK448-3 (Fab, V domains shown, Measured as monovalent Fab; also called No. 34; AK446-7/AK448-3) VH: QVQLVQSGAEVKKPGSSVKVSCKASGYDFSNFWMNWVRQAPGQGLEWMGQIYPGDGEIKYNQKFQGRVTITADESTSTAYMELSSLRSEDTAVYYCARDDYLRAMDIWGQGTMVTVSS VL: DIQMTQSPSSLSASVGDRVTITCRASQNIHNYLAWYQQKPGKAPKFLLYSAKRLESGVPSRFSGSGSGTDYTLTISSLQPEDFATYYCQHFWSSPYTFGQGTKLEIK

— patent US20190194323A1 (ALLAKOS, published 2019)
